Residue numbers refer to the chain shown, from its start.
T1: recombinant human NKG2D-Fc (human, UniProt P26718 73-216)
T1 construct: extracellular domain; also called human NKG2D-Fc fusion protein; NKG2D-Fc-biotin; not shown: human IgG1 Fc domain
T1 sequence (looked up): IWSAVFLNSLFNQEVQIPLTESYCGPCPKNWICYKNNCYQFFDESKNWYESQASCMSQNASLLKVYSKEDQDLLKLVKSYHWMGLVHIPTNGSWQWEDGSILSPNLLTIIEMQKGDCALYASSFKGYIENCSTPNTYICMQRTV

T2: recombinant cynomolgus NKG2D-Fc (cynomolgus; human, UniProt P61252 73-216)
T2 construct: extracellular domain; also called cynomolgus NKG2D-Fc fusion protein; not shown: human IgG1 Fc domain
T2 sequence (looked up): T1 sequence (looked up) with D43N, T133I

T3: recombinant mouse NKG2D-Fc (mouse; human, UniProt O54709 90-232)
T3 construct: extracellular domain; also called mouse NKG2D-Fc fusion protein; Mouse NKG2D-Fc-biotin; not shown: human IgG1 Fc domain
T3 sequence (looked up): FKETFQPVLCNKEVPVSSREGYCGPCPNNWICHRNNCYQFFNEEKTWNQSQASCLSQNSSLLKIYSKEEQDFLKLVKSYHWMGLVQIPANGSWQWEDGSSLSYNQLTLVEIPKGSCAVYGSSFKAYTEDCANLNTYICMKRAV

B1: ADI-27727 (antibody, V domains shown)
VH: QVQLVQSGAEVKKPGSSVKVSCKASGGTFSSYAISWVRQAPGQGLEWMGGIIPIFGTANYAQKFQGRVTITADESTSTAYMELSSLRSEDTAVYYCARGDSSIRHAYYYYGMDVWGQGTTVTVSS
VL: not shown
B2: ADI-29378 (antibody, V domains shown)
VH: QVQLVQSGAEVKKPGASVKVSCKASGYTFTSYYMHWVRQAPGQGLEWMGIINPSGGSTSYAQKFQGRVTMTRDTSTSTVYMELSSLRSEDTAVYYCAREGAGFAYGMDYYYMDVWGKGTTVTVSS
VL: EIVLTQSPATLSLSPGERATLSCRASQSVSSYLAWYQQKPGQAPRLLIYDASNRATGIPARFSGSGSGTDFTLTISSLEPEDFAVYYCQQSDNWPFTFGGGTKVEIK
notes: also called E78
B3: ADI-27749 (antibody, V domains shown)
VH: EVQLVESGGGLVKPGGSLRLSCAASGFTFSSYSMNWVRQAPGKGLEWVSSISSSSSYIYYADSVKGRFTISRDNAKNSLYLQMNSLRAEDTAVYYCARGAPMGAAAGWFDPWGQGTLVTVSS
VL: DIQMTQSPSSVSASVGDRVTITCRASQGISSWLAWYQQKPGKAPKLLIYAASSLQSGVPSRFSGSGSGTDFTLTISSLQPEDFATYYCQQGVSFPRTFGGGTKVEIK
notes: also called A49
B4: ADI-27705 (antibody, V domains shown)
VH: QVQLQQWGAGLLKPSETLSLTCAVYGGSFSGYYWSWIRQPPGKGLEWIGEIDHSGSTNYNPSLKSRVTISVDTSKNQFSLKLSSVTAADTAVYYCARARGPWSFDPWGQGTLVTVSS
VL: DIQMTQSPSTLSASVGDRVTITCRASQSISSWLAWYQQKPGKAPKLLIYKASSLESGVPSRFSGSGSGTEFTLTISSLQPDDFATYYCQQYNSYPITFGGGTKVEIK
B5: ADI-29403 (antibody, V domains shown)
VH: B4 VH
VL: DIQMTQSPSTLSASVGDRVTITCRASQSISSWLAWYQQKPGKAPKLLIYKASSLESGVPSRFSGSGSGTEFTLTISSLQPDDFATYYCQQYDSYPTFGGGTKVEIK
B6: ADI-28226 (antibody, V domains shown)
VH: B4 VH
VL: B3 VL with S10T, V11L, G28S, A50K, Q55E, D70E, E81D, G91Y, V92G, R96I
notes: also called C26
B7: ADI-27741 (antibody, V domains shown)
VH: B4 VH
VL: DIQMTQSPSTLSASVGDRVTITCRASQSIGSWLAWYQQKPGKAPKLLIYKASSLESGVPSRFSGSGSGTEFTLTISSLQPDDFATYYCQQSNSYYTFGGGTKVEIK
B8: ADI-29426 (antibody, V domains shown)
VH: B4 VH
VL: B7 VL with S91Y, N92H, Y94F, Y95P
B9: ADI-29405 (antibody, V domains shown)
VH: B4 VH
VL: B7 VL with G30S, S91Y, N92G, Y94F, Y95P
B10: ADI-29447 (antibody, V domains shown)
VH: B4 VH
VL: B7 VL with G30S, S91Y, N92D, S93T, Y94F, Y95I
notes: also called F47
B11: ADI-29429 (antibody, V domains shown)
VH: B4 VH
VL: DIQMTQSPSTLSASVGDRVTITCRASQSIGSWLAWYQQKPGKAPKLLIYKASSLESGVPSRFSGSGSGTEFTLTISSLQPDDFATYYCQQYELYSYTFGGGTKVEIK
B12: ADI-29421 (antibody, V domains shown)
VH: B4 VH
VL: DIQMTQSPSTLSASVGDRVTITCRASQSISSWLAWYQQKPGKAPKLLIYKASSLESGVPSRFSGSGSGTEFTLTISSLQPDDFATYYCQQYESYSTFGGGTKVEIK
B13: ADI-29401 (antibody, V domains shown)
VH: B4 VH
VL: B7 VL with S91Y, N92D, S93I, Y95P
B14: ADI-29419 (antibody, V domains shown)
VH: B4 VH
VL: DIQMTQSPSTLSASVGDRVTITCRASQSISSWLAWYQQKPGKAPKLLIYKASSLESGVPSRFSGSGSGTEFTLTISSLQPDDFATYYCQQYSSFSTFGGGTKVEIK
B15: ADI-27743 (antibody, V domains shown)
VH: B4 VH
VL: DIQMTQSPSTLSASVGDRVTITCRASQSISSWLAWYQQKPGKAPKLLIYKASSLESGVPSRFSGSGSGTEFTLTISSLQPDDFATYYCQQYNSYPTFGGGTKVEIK
B16: ADI-29425 (antibody, V domains shown)
VH: B4 VH
VL: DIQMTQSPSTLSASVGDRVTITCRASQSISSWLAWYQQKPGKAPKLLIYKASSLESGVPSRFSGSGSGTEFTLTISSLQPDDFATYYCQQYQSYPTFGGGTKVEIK
B17: ADI-27740 (antibody, V domains shown)
VH: B4 VH
VL: B7 VL with S91Y, N92H, Y94F
notes: also called A40
B18: ADI-29407 (antibody, V domains shown)
VH: B4 VH
VL: B7 VL with G30S, S91Y, N92Q, Y94F, Y95P
B19: ADI-29424 (antibody, V domains shown)
VH: B4 VH
VL: B7 VL with G30S, S91Y, N92D, Y94F, Y95I
B20: ADI-29404 (antibody, V domains shown)
VH: B4 VH
VL: B7 VL with G30S, Q89E, S91Y, N92D, Y95P
notes: also called F04
B21: ADI-29399 (antibody, V domains shown)
VH: B4 VH
VL: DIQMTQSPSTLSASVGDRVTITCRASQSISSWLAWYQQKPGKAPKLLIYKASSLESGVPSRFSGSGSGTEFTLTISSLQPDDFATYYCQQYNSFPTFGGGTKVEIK
B22: A49-TriNKET-FLT3-IMCEB10 (bispecific antibody, V domains shown)
VH 1: B3 VH
VL 1: B3 VL
VH 2: EVQLVQSGAEVKKPGASVKVSCKASGYTFTSYYMHWVRQAPGQGLEWMGIINPSGGSTSYAQKFQGRVTMTRDTSTSTVYMELSSLRSEDTAVYYCARGVGAHDAFDIWGQGTTVTVSSA
VL 2: DVVMTQSPLSLPVTPGEPASISCRSSQSLLHSNGNNYLDWYLQKPGQSPQLLIYLGSNRASGVPDRFSGSGSDTDFTLQISRVEAEDVGVYYCMQGTHPAISFGQGTRLEIKR
notes: also called A49-TriNKET-IMCEB10
B23: A49-TriNKET-FLT3-4G8 (bispecific antibody, V domains shown)
VH 1: B3 VH
VL 1: B3 VL
VH 2: QVQLQQPGAELVKPGASLKLSCKSSGYTFTSYWMHWVRQRPGHGLEWIGEIDPSDSYKDYNQKFKDKATLTVDRSSNTAYMHLSSLTSDDSAVYYCARAITTTPFDFWGQGTTLTVSS
VL 2: DIVLTQSPATLSVTPGDSVSLSCRASQSISNNLHWYQQKSHESPRLLIKYASQSISGIPSRFSGSGSGTDFTLSINSVETEDFGVYFCQQSNTWPYTFGGGTKLEIKR
notes: also called A49-TriNKET-4G8
B24: C26-TriNKET-FLT3-4G8 (bispecific antibody, V domains shown)
VH 1: B4 VH
VL 1: B11 VL with G30S, E92G, L93S, Y94F, S95P, Y96I
VH 2: B23 VH 2
VL 2: B23 VL 2
notes: also called C26-TriNKET-4G8

These binders were tested against T1, recombinant human NKG2D-Fc (assay: ELISA, NKG2D-Fc coated).

Row | binding result | Binder
1 | binds | B1
2 | binds | B2
3 | binds | B3
4 | binds | B4
5 | binds | B5
6 | binds | B6
7 | binds | B7
8 | binds | B8
9 | binds | B9
10 | binds | B10
11 | binds | B11
12 | binds | B12
13 | binds | B13
14 | binds | B14
15 | binds | B15
16 | binds | B16
17 | binds | B17
18 | binds | B18
19 | binds | B19
20 | binds | B20
21 | binds | B21

What follows are binders tested against T2, recombinant cynomolgus NKG2D-Fc (assay: ELISA, NKG2D-Fc coated).

Row | binding result | Binder
22 | binds | B1
23 | binds | B2
24 | binds | B3
25 | binds | B4
26 | binds | B5
27 | binds | B6
28 | binds | B7
29 | binds | B8
30 | binds | B9
31 | binds | B10
32 | binds | B11
33 | binds | B12
34 | binds | B13
35 | binds | B14
36 | binds | B15
37 | binds | B16
38 | binds | B17
39 | binds | B18
40 | binds | B19
41 | binds | B20
42 | binds | B21

These binders were tested against T3, recombinant mouse NKG2D-Fc (assay: ELISA, NKG2D-Fc coated).

Row | binding result | Binder
43 | binds | B1
44 | binds | B2
45 | binds | B3
46 | binds | B4
47 | binds | B5
48 | binds | B6
49 | binds | B7
50 | binds | B8
51 | binds | B9
52 | binds | B10
53 | binds | B11
54 | binds | B12
55 | binds | B13
56 | binds | B14
57 | binds | B15
58 | binds | B16
59 | binds | B17
60 | binds | B18
61 | binds | B19
62 | binds | B20
63 | binds | B21

These binders were tested against T4, FLT3 expressed on human AML cell lines Molm-13 and EOL-1 (human, UniProt P36888 27-993) (assay: flow cytometry on Molm-13 and EOL-1 cells).
T4 construct: the FLT3 in the assay is that carried by the cell lines themselves; also called FMS-like tyrosine kinase-3
Procedure: Human AML cell lines (Molm-13 and EOL-1) expressing FLT3 were used to assay the binding of FLT3-targeting TriNKETs to the tumor-associated antigen. TriNKETs were incubated with the cells, and the binding was detected using fluorophore-conjugated anti-human IgG secondary antibodies. Cells were analyzed by flow cytometry and mean fluorescence intensity (MFI) was normalized to secondary antibody controls to obtain fold over background (FOB) values.

Row | binding result | Binder
64 | binds | B22
65 | binds | B23
66 | binds | B24
